One block for each molecule: values may come before it.
Columns and labels:
[1] = target: GPR52 H8-A mutant, receptor-RLuc8 (human) (UniProt Q9Y2T5); experiment: FRET or BRET
[2] = target: GPR52 H8-A mutant, receptor-RLuc8 (human) (UniProt Q9Y2T5)
[3] = target: T1, GPR52 (wild-type), receptor-RLuc8 BRET biosensor (human, UniProt Q9Y2T5 1-361); experiment: FRET or BRET
[4] = target: T1, GPR52 (wild-type), receptor-RLuc8 BRET …; experiment: FRET or BRET; remark: listed apart in the source

% Emax of BRET, unliganded, relative to wild-type [1]: 451 % Emax
Tango assay, constitutive β-arrestin2 recruitment, % Emax relative to wild-type [2]: 300 % Emax
Molecule: β-arrestin2-GFP2 (from UniProt P32121 1-409) (natural protein)

% Emax of BRET, agonist-induced, relative to wild-type [1]: 470 % Emax
% Emax of BRET, unliganded, relative to the GLP-1R full response [3]: 5.1 % Emax
% Emax of BRET, agonist-induced, relative to the GLP-1R full response [4]: 19.5 % Emax
B1: β-arrestin1-GFP2 (natural protein)
chain: MGDKGTRVFKKASPNGKLTVYLGKRDFVDHIDLVDPVDGVVLVDPEYLKERRVYVTLTCAFRYGREDLDVLGLTFRKDLFVANVQSFPPAPEDKKPLTRLQERLIKKLGEHAYPFTFEIPPNLPCSVTLQPGPEDTGKACGVDYEVKAFCAENLEEKIHKRNSVRLVIRKVQYAPERPGPQPTAETTRQFLMSDKPLHLEASLDKEIYYHGEPISVNVHVTNNTNKTVKKIKISVRQYADICLFNTAQYKCPVAMEEADDTVAPSSTFCKVYTLTPFLANNREKRGLALDGKLKHEDTNLASSTLLREGANREILGIIVSYKVKVKLVVSRGGLLGDLASSDVAVELPFTLMHPKPKEEPPHREVPENETPVDTNLIELDTNDDDIVFEDFARQRLKGMKDDKEEEEDGTGSPQLNNR
